Laboratory results from patent publication US20060234940.

Key:
Glucagon = Glucagon (UniProt P01275)
His^1-Ser^2-NPY = His^1-Ser^2-NPY (UniProt P01303)
[Gly]^2-glucagon = [Gly]^2-glucagon (UniProt P01275)
[1] = test system: peptides of the growth hormone releasing factor (GRF) family

Sequence of [Gly]^2-glucagon (P01275 whole entry, looked up): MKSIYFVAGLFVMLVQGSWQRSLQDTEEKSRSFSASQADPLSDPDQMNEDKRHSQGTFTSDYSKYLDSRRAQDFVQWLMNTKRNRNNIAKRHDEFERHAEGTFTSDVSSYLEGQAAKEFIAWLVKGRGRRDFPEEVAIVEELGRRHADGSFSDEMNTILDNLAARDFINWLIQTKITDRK
Sequence of Glucagon (P01275 53-81): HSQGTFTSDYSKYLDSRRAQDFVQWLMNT

Substance | Km [M] of DP IV-catalyzed hydrolysis (Glucagon) | Km [M] of DP IV-catalyzed hydrolysis (His^1-Ser^2-NPY) | Km [M] of DP IV-catalyzed hydrolysis ([Gly]^2-glucagon) | hydrolysis (MALDI-TOF MS, capillary zone electrophoresis) [1]
DP IV | 3.8e-06 M | 6.8e-05 M | 2.2e-05 M | –
recombinant human DP IV, wild type | – | – | – | All peptides were hydrolyzed by porcine DP IV, recombinant human DP IV or DP IV activity of the human serum
